These results are taken from PMC9659335, “An unexpected role for leucyl aminopeptidase in UV tolerance revealed by a genome-wide fitness assessment in a model cyanobacterium” (Proceedings of the National Academy of Sciences of the …, 2022).

Substrate in series [1]: N[C@@H](CS)C(=O)NCC(=O)O
Briefly: purified protein. The note with it: pH 7.5, 50 mM Tris-HCl, 0.2 mM MnCl2, 37 °C, 5 µg/mL enzyme. The format is biochemical, Synechococcus elongatus.

Substrate in series [2]: CC(C)C[C@H](N)C(=O)Nc1ccc([N+](=O)[O-])cc1
Description: purified protein. It is filed as biochemical, Synechococcus elongatus. The note with it: pH 7.5, 50 mM Tris-HCl, 0.2 mM MnCl2, 37 °C, 5 µg/mL enzyme.

B1: SynPCC7942_1190 (LAP, leucyl aminopeptidase) (Synechococcus elongatus PCC 7942 = FACHB-805) (protein)
chain: MTFQAIATHPQDWTGDTLALGLTTAAIGETLSSELQKLDQQWNGVLQELISDSEFKAKLAETTTTRIGGSIRKLILVGLGESPTTEDYRRAAAAVAKQARSFKSQTLAIAFPPSDDPAAIASAIVEGISLALYKDQRFKSEPDTASGPSSIELLGLAGQEAAIARAEQVVAGVELARQLVAAPANVVTPVTMADTAQELAAELGLELEILEADECEKRGMGAFLGVAKASDLPPKFIHLTYRPESTPRRKLAIVGKGLTFDSGGYNIKGAGSGIEMMKTDMGGAAATLGAAKAIGLIKPDVEVHFISAVTENMISGRGMHPGDILTASNGKTIEVNNTDAEGRLTLADALVFADGLGVDAIVDLATLTGACIIALGDDIAGLWSPSDDLAEQLLQAGKAAGEKLWRLPLEEPYLDGLKSPVADYKNTGPRAGGSITAALFLKQFVKHPVWAHLDVAGPVWSDKEKHYNPAGATGYGVRTLVNWVLS
notes: full-length gene in pET-28b(+) (pAM5836), Strep-tag (text: N terminus)
Turning to B1, the Michaelis constant (Km) in the series “purified protein [1]” is 1.21 mM; in the series “purified protein [2]”, 7.44 mM.
